± gives the standard deviation of the averaged measurements.
Test: total protein half-life in vivo (active degradation + dilution); higher = more stable protein
[1] = E. coli NCM3722 delta-clpP delta-lon delta-hslV, growth: N-lim chemostat, doubling time 6 h
[2] = E. coli NCM3722 delta-clpP, growth: N-lim chemostat, doubling time 6 h
[3] = E. coli NCM3722 delta-smpB, growth: N-lim chemostat, doubling time 6 h
[4] = wild type E. coli NCM3722, growth: C-lim chemostat, doubling time 3 h
[5] = wild type E. coli NCM3722, growth: C-lim chemostat, doubling time 6 h
[6] = wild type E. coli NCM3722, growth: C-lim chemostat, doubling time 12 h
[7] = wild type E. coli NCM3722, growth: N-lim chemostat, doubling time 6 h
[8] = wild type E. coli NCM3722, growth: N-lim chemostat, doubling time 12 h
[9] = wild type E. coli NCM3722, growth: P-lim chemostat, doubling time 6 h
[10] = wild type E. coli NCM3722, growth: P-lim chemostat, doubling time 12 h
[11] = E. coli NCM3722 delta-lon, growth: N-lim chemostat, doubling time 6 h
[12] = E. coli NCM3722 delta-hslV, growth: N-lim chemostat, doubling time 6 h

Row | Sequence | total protein half-life in vivo [1] [h] | total protein half-life in vivo [2] [h] | total protein half-life in vivo [3] [h] | total protein half-life in vivo [4] [h] | total protein half-life in vivo [5] [h] | total protein half-life in vivo [6] [h] | total protein half-life in vivo [7] [h] | total protein half-life in vivo [8] [h] | total protein half-life in vivo [9] [h] | total protein half-life in vivo [10] [h] | total protein half-life in vivo [11] [h] | total protein half-life in vivo [12] [h]
1 | MEQSVANLVDMRDVSFTRGNRCIFDNISLTVPRGKITAIMGPSGIGKTTLLRLIGGQIAPDHGEILFDGENIPAMSRSRLYTVRKRMSMLFQSGALFTDMNVFDNVAYPLREHTQLPAPLLHSTVMMKLEAVGLRGAAKLMPSELSGGMARRAALARAIALEPDLIMFDEPFVGQDPITMGVLVKLISELNSALGVTCVVVSHDVPEVLSIADHAWILADKKIVAHGSAQALQANPDPRVRQFLDGIADGPVPFRYPAGDYHADLLPGS | 6.3 ± 0.54 | 6.19 ± 0.062 | 5.79 ± 0.68 | 3.08 ± 0.07 | 7.05 ± 1.1 | 12.3 ± 2 | 6.18 ± 0.23 | > 16 | 7.04 ± 0.68 | 14.1 ± 0.78 |  | 
2 | MERFDAIIIGAGAAGMFCSALAGQAGRRVLLIDNGKKPGRKILMSGGGRCNFTNLYVEPGAYLSQNPHFCKSALARFTQWDFIDLVNKHGIAWHEKTLGQLFCDDSAQQIVDMLVDECEKGNVTFRLRSEVLSVAKDETGFTLDLNGMTVGCEKLVIATGGLSMPGLGASPFGYKIAEQFGLNVLPTRAGLVPFTLHKPLLEELQVLAGVAVPSVITAENGTVFRENLLFTHRGLSGPAVLQISSYWQPGEFVSINLLPDVDLETFLNEQRNAHPNQSLKNTLAVHLPKRLVERLQQLGQIPDVSLKQLNVRDQQALISTLTDWRVQPNGTEGYRTAEVTLGGVDTNELSSRTMEARKVPGLYFIGEVMDVTGWLGGYNFQWAWSSAWACAQDLIAAKSS | 5.02 ± 0.28 | 5.67 ± 1.1 | 4.72 ± 0.1 | 3.282 ± 0.019 | 6.42 ± 0.6 | 12.3 ± 1.9 | 5.15 ± 0.21 | 9.59 ± 0.85 | 5.88 ± 0.17 | 10.8 ± 1.7 | 5.81 ± 0.69 | 
3 | MERIVVTLGERSYPITIASGLFNEPASFLPLKSGEQVMLVTNETLAPLYLDKVRGVLEQAGVNVDSVILPDGEQYKSLAVLDTVFTALLQKPHGRDTTLVALGGGVVGDLTGFAAASYQRGVRFIQVPTTLLSQVDSSVGGKTAVNHPLGKNMIGAFYQPASVVVDLDCLKTLPPRELASGLAEVIKYGIILDGAFFNWLEENLDALLRLDGPAMAYCIRRCCELKAEVVAADERETGLRALLNLGHTFGHAIEAEMGYGNWLHGEAVAAGMVMAARTSERLGQFSSAETQRIITLLKRAGLPVNGPREMSAQAYLPHMLRDKKVLAGEMRLILPLAIGKSEVRSGVSHELVLNAIADCQSA | 4.67 ± 1.3 | 3.73 ± 0.43 | 3.57 ± 0.046 | 2.77 ± 0.15 | 5.16 ± 0.2 | 8.87 ± 0.33 | 3.49 ± 0.091 | 5.447 ± 0.037 | 5.77 ± 0.57 | 10.6 ± 0.48 | 3.72 ± 0.1 | 3.46 ± 0.2
4 | MERNVTLDFVRGVAILGILLLNISAFGLPKAAYLNPAWYGAITPRDAWTWAFLDLIGQVKFLTLFALLFGAGLQMLLPRGRRWIQSRLTLLVLLGFIHGLLFWDGDILLAYGLVGLICWRLVRDAPSVKSLFNTGVMLYLVGLGVLLLLGLISDSQTSRAWTPDASAILYEKYWKLHGGVEAISNRADGVGNSLLALGAQYGWQLAGMMLIGAALMRSGWLKGQFSLRHYRRTGFVLVAIGVTINLPAIALQWQLDWAYRWCAFLLQMPRELSAPFQAIGYASLFYGFWPQLSRFKLVLAIACVGRMALTNYLLQTLICTTLFYHLGLFMHFDRLELLAFVIPVWLANILFSVIWLRYFRQGPVEWLWRQLTLRAAGPAISKTSR |  | 5.73 ± 0.069 | 5.67 ± 0.66 |  | 6.471 ± 0.017 | 10.3 ± 1.2 | 6.72 ± 0.74 | 7.45 ± 4 | 5.19 ± 0.44 | 11.6 ± 0.22 | 6.13 ± 0.32 | 5.75 ± 1.1
5 | MESIEQQLTELRTTLRHHEYLYHVMDAPEIPDAEYDRLMRELRELETKHPELITPDSPTQRVGAAPLAAFSQIRHEVPMLSLDNVFDEESFLAFNKRVQDRLKNNEKVTWCCELKLDGLAVSILYENGVLVSAATRGDGTTGEDITSNVRTIRAIPLKLHGENIPARLEVRGEVFLPQAGFEKINEDARRTGGKVFANPRNAAAGSLRQLDPRITAKRPLTFFCYGVGVLEGGELPDTHLGRLLQFKKWGLPVSDRVTLCESAEEVLAFYHKVEEDRPTLGFDIDGVVIKVNSLAQQEQLGFVARAPRWAVAFKFPAQEQMTFVRDVEFQVGRTGAITPVARLEPVHVAGVLVSNATLHNADEIERLGLRIGDKVVIRRAGDVIPQVVNVVLSERPEDTREVVFPTHCPVCGSDVERVEGEAVARCTGGLICGAQRKESLKHFVSRRAMDVDGMGDKIIDQLVEKEYVHTPADLFKLTAGKLTGLERMGPKSAQNVVNALEKAKETTFARFLYALGIREVGEATAAGLAAYFGTLEALEAASIEELQKVPDVGIVVASHVHNFFAEESNRNVISELLAEGVHWPAPIVINAEEIDSPFAGKTVVLTGSLSQMSRDDAKARLVELGAKVAGSVSKKTDLVIAGEAAGSKLAKAQELGIEVIDEAEMLRLLGS | 6.33 ± 0.46 | 5.67 ± 0.88 | 4.28 ± 0.047 | 2.8 ± 0.23 | 5.68 ± 1.1 | 9.65 ± 0.5 | 4.64 ± 0.15 | 8.04 ± 0.3 | 4.92 ± 0.57 | 8.66 ± 0.66 | 5.11 ± 0.22 | 5 ± 0.61
6 | MESIQPWIEKFIKQAQQQRSQSTKDYPTSYRNLRVKLSFGYGNFTSIPWFAFLGEGQEASNGIYPVILYYKDFDELVLAYGISDTNEPHAQWQFSSDIPKTIAEYFQATSGVYPKKYGQSYYACSQKVSQGIDYTRFASMLDNIINDYKLIFNSGKSVIPPMSKTESYCLEDALNDLFIPETTIETILKRLTIKKNIILQGPPGVGKTFVARRLAYLLTGEKAPQRVNMVQFHQSYSYEDFIQGYRPNGVGFRRKDGIFYNFCQQAKEQPEKKYIFIIDEINRANLSKVFGEVMMLMEHDKRGENWSVPLTYSENDEERFYVPENVYIIGLMNTADRSLAVVDYALRRRFSFIDIEPGFDTPQFRNFLLNKKAEPSFVESLCQKMNELNQEISKEATILGKGFRIGHSYFCCGLEDGTSPDTQWLNEIVMTDIAPLLEEYFFDDPYKQQKWTNKLLGDS | 5.77 ± 0.24 | 3.81 | 4 ± 0.19 | 3.13 ± 0.25 | 6.02 ± 2.1 | 8.15 ± 0.33 | 4.41 ± 0.59 |  | 5.12 ± 0.74 | 6.46 ± 0.81 |  | 
